Target: T1, 1CARD-SUMO (caspase-1 CARD with carboxy-terminal SUMO, after TEV cleavage of MBP-1CARD-SUMO) (human, UniProt P29466 1-91)
T1 sequence (looked up): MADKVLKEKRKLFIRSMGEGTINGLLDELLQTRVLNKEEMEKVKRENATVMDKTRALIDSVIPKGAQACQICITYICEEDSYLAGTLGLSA
Assay: cross-linking

- fold decrease in 1CARD oligomer with SERPINB1 against without SERPINB1: 4.18 fold
- fold increase in 1CARD monomer with SERPINB1 against without SERPINB1: 7.48 fold
B1: SERPINB1, purified, amino-terminal SUMO cleaved (natural protein, human, UniProt P30740 1-379, looked up)
chain: MEQLSSANTRFALDLFLALSENNPAGNIFISPFSISSAMAMVFLGTRGNTAAQLSKTFHFNTVEEVHSRFQSLNADINKRGASYILKLANRLYGEKTYNFLPEFLVSTQKTYGADLASVDFQHASEDARKTINQWVKGQTEGKIPELLASGMVDNMTKLVLVNAIYFKGNWKDKFMKEATTNAPFRLNKKDRKTVKMMYQKKKFAYGYIEDLKCRVLELPYQGEELSMVILLPDDIEDESTGLKKIEEQLTLEKLHEWTKPENLDFIEVNVSLPRFKLEESYTLNSDLARLGVQDLFNSSKADLSGMSGARDIFISKIVHKSFVEVNEEGTEAAAATAGIATFCMLMPEENFTADHPFLFFIRHNSSGSILFLGRFSSP

Reference: paper PMC6450391 (Nature immunology, 2019)
